Target: EGFR extracellular domain (ECD), wild type (human, UniProt P00533 25-645)
Assay: SPR

Row | Binder | Kd
1 | recombinant Lingzhi-8 (rLZ-8), wild type (natural protein) MSDTALIFRLAWDVKKLSFDYTPNWGRGNPNNFIDTVTFPKVLTDKAYTYRVAVSGRNLGVKPSYAVESDGSQKVNFLEYNSGYGIADTNTIQVFVVDPDTNNDFIIAQWN | 4.75 nM
2 | rLZ-8^(Mut 3) (K16A/S18A/K41A/D45A) (natural protein) SDTALIFRLAWDVKALAFDYTPNWGRGNPNNFIDTVTFPAVLTAKAYTYRVAVSGRNLGVKPSYAVESDGSQKVNFLEYNSGYGIADTNTIQVFVVDPDTNNDFIIAQWN | 9.22 nM
